From patent publication US6794144

Legend:
[1] = molecular target: GST-Nef (HIV-1 NL4-3 Nef containing a T71R change) (HIV-1 NL4-3) [GST: P08515]; assay: competition plate assay: unlabeled GST-SH3 vs biotinylated Hck-SH3 probe (66 nM) on immobilized GST-Nef
[2] = molecular target: GST-NefR90 (HIV-1 Nef carrying an F90R mutation) (HIV-1) [GST: P08515]; assay: estimated from competition by Hck-SH3 and the earlier KD 1.99 µM of Hck-SH3/NefR90
[3] = molecular target: GST-Nef (HIV-1 NL4-3 Nef containing a T71R change) (HIV-1 NL4-3) [GST: P08515]; assay: calculated from competition with Hck-SH3 probe on immobilized Nef, based on KD 250 nM of Hck-SH3/Nef
[4] = molecular target: GST-NefR90 (HIV-1 Nef carrying an F90R mutation) (HIV-1) [GST: P08515]
[5] = molecular target: GST-Nef (HIV-1 NL4-3 Nef containing a T71R change) (HIV-1 NL4-3) [GST: P08515]
[6] = molecular target: GST-Nef (HIV-1 NL4-3 Nef containing a T71R change) (HIV-1 NL4-3) [GST: P08515]; remark: listed apart in the source
[7] = molecular target: GST-NefR90 (HIV-1 Nef carrying an F90R mutation) (HIV-1) [GST: P08515]; remark: listed apart in the source

Substance | ratio of competitor per probe giving 50% inhibition (1:x competitor:probe) [1] | Kd [2] | Kd [3] | inhibition at an equimolar probe:competitor ratio [4] | inhibition at an equimolar probe:competitor ratio [5] | IC50 [6] | fold excess over the probe needed for 50% inhibition [6] | IC50 [7] | fold molar excess over the probe needed for 50% inhibition [7]
GST-RRT.A1 (Hck-derived RRT-SH3 domain, RT-loop VSWSPD) (from UniProt P08631 62-118) (designed binder) | 35 | < 100 nM | 7 nM | 52% | 55% |  |  |  | 
GST-RRT.m4 (Hck-derived RRT-SH3 domain selected on NefR90, RT-loop ESYSEW) (from UniProt P08631 62-118) (designed binder) |  |  |  | 46% | < 5% |  |  |  | 
GST-RRT.B6 (Hck-derived RRT-SH3 domain, RT-loop YSPFSW) (from UniProt P08631 62-118) (designed binder) | 37 |  | 7 nM | 14% | 51% |  |  |  | 
GST-RRT.m1 (Hck-derived RRT-SH3 domain selected on NefR90, RT-loop QGFLDQ) (from UniProt P08631 62-118) (designed binder) | 0.8 |  |  | 73% | < 5% |  |  |  | 
GST-RRT.B2 (Hck-derived RRT-SH3 domain, RT-loop DSPFSF) (from UniProt P08631 62-118) (designed binder) | 22 |  |  | 26% | 22% |  |  |  | 
GST-RRT.B4 (Hck-derived RRT-SH3 domain, RT-loop FSPFDW) (from UniProt P08631 62-118) (designed binder) | 21 |  |  | 37% | 41% |  |  |  | 
GST-RRT.D1 (Hck-derived RRT-SH3 domain, RT-loop SSFYSS) (from UniProt P08631 62-118) (designed binder) | 22 |  |  | 17% | 45% |  |  |  | 
GST-RRT.C4 (Hck-derived RRT-SH3 domain, RT-loop DSWFPW) (from UniProt P08631 62-118) (designed binder) | 14 |  |  | 19% | 10% |  |  |  | 
GST-Hck-SH3 (native Hck SH3 domain, GST fusion protein) (from UniProt P08631 78-138) | 1 |  |  | < 5% | < 5% | > 850 nM | > 100 fold | > 1100 nM | > 16 fold
GST-RRT.A4 (Hck-derived RRT-SH3 domain, RT-loop YSWSDM) (from UniProt P08631 62-118) (designed binder) | 10 |  |  | 44% | 34% |  |  |  | 
GST-RRT.A2 (Hck-derived RRT-SH3 domain, RT-loop FSWSDT) (from UniProt P08631 62-118) (designed binder) | 19 |  |  | 53% | 20% |  |  |  | 
GST-RRT.C1 (Hck-derived RRT-SH3 domain, RT-loop TSPFPW) (from UniProt P08631 62-118) (designed binder) | 31 |  | 7 nM | < 5% | 39% |  |  |  | 
GST-RRT.m3 (Hck-derived RRT-SH3 domain selected on NefR90, RT-loop EAWSPL) (from UniProt P08631 62-118) (designed binder) | 17 |  |  | 62% | 22% |  |  |  | 
GST-RRT.C2 (Hck-derived RRT-SH3 domain, RT-loop YSFFPW) (from UniProt P08631 62-118) (designed binder) | 16 |  |  | 13% | 20% |  |  |  | 
GST-RRT.C3 (Hck-derived RRT-SH3 domain, RT-loop YSDFPW) (from UniProt P08631 62-118) (designed binder) | 26 |  |  | 20% | 42% |  |  |  | 
GST-RRT.m2 (Hck-derived RRT-SH3 domain selected on NefR90, RT-loop NAFLPS) (from UniProt P08631 62-118) (designed binder) | 2 |  |  | 73% | < 5% |  |  |  | 
GST-RRT.B1 (Hck-derived RRT-SH3 domain, RT-loop WSPFPS) (from UniProt P08631 62-118) (designed binder) | 26 |  |  | 9% | 41% |  |  |  | 
